Test results: patent publication US20130177556
Read-outs that look alike come from different tables or passages of the source.

Columns and labels:
[1] = target: EGFR on A549 cells (Homo sapiens) (UniProt P00533)
[2] = target: EGFR extracellular domain (EC-EGFR) (Homo sapiens) (UniProt P00533); experiment: filter; conditions: 2'-F pyrimidines (all C and U); PBS, 0.01% BSA, 37 C, 15 min; scrambled background subtracted
[3] = target: EGFR on A549 cells (Homo sapiens) (UniProt P00533); experiment: cell_activity; conditions: 2'-F pyrimidines (all C and U); inhibition of EGF-dependent EGFR phosphorylation in A549, 200 nM aptamer

Sequence | Kd ([1]; 2'-F pyrimidines, Kd stated for full-length CL4, whole A549 cells implied) | Kd ([1]; 2'-F pyrimidines (all C and U), binding to whole A549 cells, radiolabelled aptamer) | Kd [2] | activity [3]
GGGAGACAAGAAUAAACGCUCAACGACACGUUGCCAGCCGGAGCCUUAGUAACGUGCUUUGAUGUCGAUUCGACAGGAGGCUCACAACAGGC [CL4] | 46 nM |  |  | 
GCCUUAGUAACGUGCUUUGAUGUCGAUUCGACAGGAGGC [CL4 42-81] |  | 38 nM | 10 nM | 60 % inhibition
